{
  "source": "IntAct's records for PubMed 19513107",
  "parents": {"B1": {"name": "Calcium-binding protein 39 (Homo sapiens), Q9Y376 (parent)", "chain": "MPFPFGKSHKSPADIVKNLKESMAVLEKQDISDKKAEKATEEVSKNLVAMKEILYGTNEKEPQTEAVAQLAQELYNSGLLSTLVADLQLIDFEGKKDVAQIFNNILRRQIGTRTPTVEYICTQQNILFMLLKGYESPEIALNCGIMLRECIRHEPLAKIILWSEQFYDFFRYVEMSTFDIASDAFATFKDLLTRHKLLSAEFLEQHYDRFFSEYEKLLHSENYVTKRQSLKLLGELLLDRHNFTIMTKYISKPENLKLMMNLLRDKSRNIQFEAFHVFKVFVANPNKTQPILDILLKNQAKLIEFLSKFQNDRTEDEQFNDEKTYLVKQIRDLKRPAQQEA", "partner": "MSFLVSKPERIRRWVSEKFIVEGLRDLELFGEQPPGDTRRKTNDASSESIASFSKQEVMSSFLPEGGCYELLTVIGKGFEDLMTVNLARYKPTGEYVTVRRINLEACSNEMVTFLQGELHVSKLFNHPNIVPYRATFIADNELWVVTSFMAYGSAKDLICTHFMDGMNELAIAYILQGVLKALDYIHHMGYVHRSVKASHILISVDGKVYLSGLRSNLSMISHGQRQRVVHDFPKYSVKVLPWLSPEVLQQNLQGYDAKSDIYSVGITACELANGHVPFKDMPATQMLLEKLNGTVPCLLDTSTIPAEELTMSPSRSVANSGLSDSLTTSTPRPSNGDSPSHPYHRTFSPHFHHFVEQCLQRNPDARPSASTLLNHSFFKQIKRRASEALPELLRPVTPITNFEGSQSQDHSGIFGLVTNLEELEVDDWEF"}, "B2": {"name": "STE20-related kinase adapter protein alpha (Homo sapiens), Q7RTN6-1 (parent)", "chain": "B1 partner", "partner": "B1 chain"}, "B3": {"name": "STE20-related kinase adapter protein alpha (Homo sapiens), Q7RTN6-1 (parent)", "chain": "B1 partner", "partner": "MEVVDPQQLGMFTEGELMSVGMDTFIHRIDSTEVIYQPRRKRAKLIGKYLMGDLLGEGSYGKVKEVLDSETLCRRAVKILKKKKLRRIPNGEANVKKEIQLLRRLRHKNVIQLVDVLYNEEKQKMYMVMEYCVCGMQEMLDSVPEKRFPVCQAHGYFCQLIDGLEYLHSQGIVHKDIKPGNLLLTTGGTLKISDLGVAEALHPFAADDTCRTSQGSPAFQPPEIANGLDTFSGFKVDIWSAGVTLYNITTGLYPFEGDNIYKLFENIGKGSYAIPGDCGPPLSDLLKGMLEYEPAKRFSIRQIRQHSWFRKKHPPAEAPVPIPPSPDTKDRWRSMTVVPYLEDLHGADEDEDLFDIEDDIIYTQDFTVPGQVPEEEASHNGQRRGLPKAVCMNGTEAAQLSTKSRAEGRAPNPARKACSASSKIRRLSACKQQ"}, "B4": {"name": "Calcium-binding protein 39 (Homo sapiens), Q9Y376 (parent)", "chain": "B1 chain", "partner": "B3 partner"}},
  "data": [
    {"variants_of": "B1", "conditions": "with STRADA", "values": [
      {"variant": "S182A", "effect of a mutation on the interaction": "disrupting interaction"},
      {"variant": "M260A", "effect of a mutation on the interaction": "disrupting interaction"},
      {"variant": "R107A", "effect of a mutation on the interaction": "disrupting interaction"},
      {"variant": "F92A", "effect of a mutation on the interaction": "disrupting interaction"},
      {"variant": "Q228A", "effect of a mutation on the interaction": "disrupting interaction"},
      {"variant": "F178A", "effect of a mutation on the interaction": "disrupting interaction"},
      {"variant": "E93A", "effect of a mutation on the interaction": "disrupting interaction"},
      {"variant": "Y223A", "effect of a mutation on the interaction": "disrupting interaction"},
      {"variant": "I145A", "effect of a mutation on the interaction": "disrupting interaction"},
      {"variant": "K96A", "effect of a mutation on the interaction": "disrupting interaction"}
    ]},
    {"variants_of": "B1", "conditions": "with STRADA", "remark": "another data set of the same source", "values": [
      {"variant": "R227A", "effect of a mutation on the interaction": "disrupting interaction"}
    ]},
    {"variants_of": "B1", "conditions": "with STRADA", "remark": "another data set of the same source", "values": [
      {"variant": "R227A;M260A", "effect of a mutation on the interaction": "disrupting interaction"}
    ]},
    {"variants_of": "B2", "conditions": "with cab39_human CAB39, Q9Y376", "values": [
      {"variant": "E105A", "effect of a mutation on the interaction": "disrupting interaction"},
      {"variant": "N126G", "effect of a mutation on the interaction": "decreasing interaction"},
      {"variant": "N109A", "effect of a mutation on the interaction": "decreasing interaction"},
      {"variant": "I138Q", "effect of a mutation on the interaction": "disrupting interaction"},
      {"variant": "Y185F", "effect of a mutation on the interaction": "disrupting interaction"}
    ]},
    {"variants_of": "B3", "conditions": "with stk11_human STK11, Q15831", "values": [
      {"variant": "G76D;G78D;K197E;R215E", "effect of a mutation on the interaction": "disrupting interaction"},
      {"variant": "G76D;G78D;K197E", "effect of a mutation on the interaction": "disrupting interaction"},
      {"variant": "G76D;G78D;R215E", "effect of a mutation on the interaction": "decreasing interaction"}
    ]},
    {"variants_of": "B4", "conditions": "with stk11_human STK11, Q15831", "values": [
      {"variant": "R227A;R240A;M260A", "effect of a mutation on the interaction": "disrupting interaction"},
      {"variant": "R227A;R240A", "effect of a mutation on the interaction": "disrupting interaction"}
    ]}
  ]
}
